The results in this text go back to paper PMC8754651 (2021).

The labels stand for the following.
B1: human TFIIH p62 PH domain (PH-D) (residues 1–108) (domain or fragment)
chain: MATSSEEVLLIVKKVRQKKQDGALYLMAERIAWAPEGKDRFTISHMYADIKCQKISPEGKAKIQLQLVLHAGDTTNFHFSNESTAVKERDAVKDLLQQLLPKFKRKAN
B2: human RPB6 (residues 1–24) F13A (peptide)
peptide: MSDNEDNFDGDDADDVEEDEGLDD

The target of assay [1] is human RPB6 (residues 1–127), full-length (human, UniProt P61218 1-127). The assay can be described thus: NMR.
Assay [2] has as its target B1. The assay is described as follows: ITC. For orientation: Isothermal titration calorimetry measures the heat released or taken up as one component is titrated into another.

The molecule B1 had a Kd in assay [1] of 4.13 µM. This lies in the single-digit micromolar range. B2: the Kd in assay [2] is 18.1 µM.

As usually defined, the Kd is the concentration at which binding is half-saturated. Higher therefore signals a looser complex.
